Consider three molecules from article PMC11829961 (Nature Communications, 2025).

One series has as its target T1, IL-36R (20-333)-His6-Avi (human, UniProt Q9HB29 20-333, biotin on the Avi tag (in vitro, BirA)).
T1 sequence (looked up): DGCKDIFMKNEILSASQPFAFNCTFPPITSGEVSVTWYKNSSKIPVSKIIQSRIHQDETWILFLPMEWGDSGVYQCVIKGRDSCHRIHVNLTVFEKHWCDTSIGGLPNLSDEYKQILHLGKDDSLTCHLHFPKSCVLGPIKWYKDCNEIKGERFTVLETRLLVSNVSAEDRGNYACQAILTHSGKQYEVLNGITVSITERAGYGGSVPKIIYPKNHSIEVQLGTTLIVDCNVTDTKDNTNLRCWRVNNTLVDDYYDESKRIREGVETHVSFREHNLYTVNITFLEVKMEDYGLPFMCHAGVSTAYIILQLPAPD
Put plainly: SPR.

Another series addresses IL-36R (20-220)-His6-Avi (human, UniProt Q9HB29, biotin on the Avi tag (in vitro, BirA)). Put plainly: crystal structure.
For series [1] the following is noted: patients who had received at least one dose; cited from earlier work.

B1: Human IL-36α (aa 6–158) (ligand, UniProt Q9UHA7 6-158, looked up)
chain: KIDTPQQGSIQDINHRVWVLQDQTLIAVPRKDRMSPVTIALISCRHVETLEKDRGNPIYLGLNGLNLCLMCAKVGDQPTLQLKEKDIMDLYNQPEPVKSFLFYHSQSGRNSTFESVAFPGWFIAVSSEGGCPLILTQELGKANTTDFGLTMLF
The Kd is the free concentration of one partner at which half of the binding sites on the other are occupied at equilibrium, for simple one-to-one binding. A lower Kd goes with tighter binding. B1: in the series with IL-36R (20-333)-His6-Avi, the Kd is ~600 nM.

B2: spesolimab-Fab (Fab, V domains shown)
VH: QVQLVQSGAEVKKPGASVKVSCKASGYSFTSSWIHWVKQAPGQGLEWMGEINPGNVRTNYNENFRNKVTMTVDTSISTAYMELSRLRSDDTAVYYCTVVFYGEPYFPYWGQGTLVTVSS
VL: QIVLTQSPGTLSLSPGERATMTCTASSSVSSSYFHWYQQKPGQAPRLWIYRTSRLASGVPDRFSGSGSGTDFTLTISRLEPEDAATYYCHQFHRSPLTFGAGTKLEIK
B2: in the series with IL-36R (20-220)-His6-Avi, the binding result is listed as “binds”.

B3: spesolimab: IL-36R blocking antibody, positive control; approved for flares of GPP (antibody, chains of the INN, looked up, V domains shown)
VH: B2 VH
VL: B2 VL
For B3, the “anti-drug antibodies observed, patients” value in series [1] is recorded as 23 out of 50.
